The supplement of paper PMC10065799, “High-throughput profiling of sequence recognition by tyrosine kinases and SH2 domains using bacterial peptide display” (eLife, 2023)

Key:
[1] = system: AncSZ; assay: phosphorylation enrichment, bacterial display (enrichment ratio); higher = better substrate or ligand; peptides without Tyr show the background
[2] = biological target: EPHB1 (UniProt P54762); assay: as above
[3] = biological target: EPHB2 (UniProt P29323); assay: as above
[4] = biological target: FGFR1 (UniProt P11362); assay: as above
[5] = biological target: FGFR3 (UniProt P22607); assay: as above
Sequence of FGFR3 (P22607 whole entry, looked up): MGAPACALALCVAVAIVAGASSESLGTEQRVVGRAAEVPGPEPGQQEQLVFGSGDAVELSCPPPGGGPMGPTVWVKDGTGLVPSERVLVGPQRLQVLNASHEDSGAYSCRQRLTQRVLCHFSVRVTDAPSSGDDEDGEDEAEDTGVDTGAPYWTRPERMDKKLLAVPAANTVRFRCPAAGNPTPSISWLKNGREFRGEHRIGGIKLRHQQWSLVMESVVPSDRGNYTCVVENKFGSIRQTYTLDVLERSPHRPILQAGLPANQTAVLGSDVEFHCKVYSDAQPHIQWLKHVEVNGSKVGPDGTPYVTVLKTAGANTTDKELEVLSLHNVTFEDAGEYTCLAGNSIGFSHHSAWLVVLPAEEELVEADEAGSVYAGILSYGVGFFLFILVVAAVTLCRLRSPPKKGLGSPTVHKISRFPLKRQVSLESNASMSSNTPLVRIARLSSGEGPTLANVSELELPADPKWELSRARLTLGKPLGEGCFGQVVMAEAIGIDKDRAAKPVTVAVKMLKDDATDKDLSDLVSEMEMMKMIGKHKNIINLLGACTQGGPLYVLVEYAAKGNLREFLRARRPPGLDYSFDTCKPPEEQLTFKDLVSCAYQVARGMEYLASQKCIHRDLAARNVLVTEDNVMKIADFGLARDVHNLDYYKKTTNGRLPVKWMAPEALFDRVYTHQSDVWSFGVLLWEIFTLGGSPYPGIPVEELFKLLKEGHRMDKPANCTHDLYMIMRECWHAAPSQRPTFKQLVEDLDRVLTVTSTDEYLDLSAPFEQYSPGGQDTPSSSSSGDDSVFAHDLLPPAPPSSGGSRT

[6] = system: Fer (mouse); assay: as above
[7] = biological target: Fes (UniProt P07332); assay: as above
[8] = biological target: Fyn (UniProt P06241); assay: as above
Sequence of Fyn (P06241 whole entry, looked up): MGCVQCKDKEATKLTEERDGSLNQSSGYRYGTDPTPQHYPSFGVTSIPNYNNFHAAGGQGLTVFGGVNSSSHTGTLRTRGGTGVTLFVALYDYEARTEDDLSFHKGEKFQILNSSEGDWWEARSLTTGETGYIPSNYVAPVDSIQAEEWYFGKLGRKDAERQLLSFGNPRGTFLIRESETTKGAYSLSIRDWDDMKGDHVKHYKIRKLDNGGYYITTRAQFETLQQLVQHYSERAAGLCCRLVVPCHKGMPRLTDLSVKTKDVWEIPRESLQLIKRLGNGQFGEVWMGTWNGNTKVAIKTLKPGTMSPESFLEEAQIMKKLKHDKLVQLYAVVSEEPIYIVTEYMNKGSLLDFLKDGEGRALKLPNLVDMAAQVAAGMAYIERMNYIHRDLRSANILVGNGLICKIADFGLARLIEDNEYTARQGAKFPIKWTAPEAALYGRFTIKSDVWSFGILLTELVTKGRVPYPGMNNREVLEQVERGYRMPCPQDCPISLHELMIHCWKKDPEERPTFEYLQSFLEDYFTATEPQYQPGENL

[9] = biological target: Hck (UniProt P08631); assay: as above
Sequence of Hck (P08631 whole entry, looked up): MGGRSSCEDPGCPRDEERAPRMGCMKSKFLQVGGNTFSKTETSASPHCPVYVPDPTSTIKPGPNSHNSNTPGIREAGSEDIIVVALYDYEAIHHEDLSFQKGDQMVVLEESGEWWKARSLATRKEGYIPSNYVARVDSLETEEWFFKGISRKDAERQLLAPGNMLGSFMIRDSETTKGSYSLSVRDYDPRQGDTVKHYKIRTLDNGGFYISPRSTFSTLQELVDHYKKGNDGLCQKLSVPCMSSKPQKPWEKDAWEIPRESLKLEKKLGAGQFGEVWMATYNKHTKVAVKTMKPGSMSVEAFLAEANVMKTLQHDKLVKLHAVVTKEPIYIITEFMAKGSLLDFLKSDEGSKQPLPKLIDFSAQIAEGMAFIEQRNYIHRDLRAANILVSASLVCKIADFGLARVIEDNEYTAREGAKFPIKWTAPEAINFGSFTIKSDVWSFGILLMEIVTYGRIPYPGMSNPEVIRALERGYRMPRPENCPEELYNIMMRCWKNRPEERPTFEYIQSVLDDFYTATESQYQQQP

[10] = biological target: Jak2 (UniProt O60674); assay: as above
Sequence of Jak2 (O60674 whole entry, looked up): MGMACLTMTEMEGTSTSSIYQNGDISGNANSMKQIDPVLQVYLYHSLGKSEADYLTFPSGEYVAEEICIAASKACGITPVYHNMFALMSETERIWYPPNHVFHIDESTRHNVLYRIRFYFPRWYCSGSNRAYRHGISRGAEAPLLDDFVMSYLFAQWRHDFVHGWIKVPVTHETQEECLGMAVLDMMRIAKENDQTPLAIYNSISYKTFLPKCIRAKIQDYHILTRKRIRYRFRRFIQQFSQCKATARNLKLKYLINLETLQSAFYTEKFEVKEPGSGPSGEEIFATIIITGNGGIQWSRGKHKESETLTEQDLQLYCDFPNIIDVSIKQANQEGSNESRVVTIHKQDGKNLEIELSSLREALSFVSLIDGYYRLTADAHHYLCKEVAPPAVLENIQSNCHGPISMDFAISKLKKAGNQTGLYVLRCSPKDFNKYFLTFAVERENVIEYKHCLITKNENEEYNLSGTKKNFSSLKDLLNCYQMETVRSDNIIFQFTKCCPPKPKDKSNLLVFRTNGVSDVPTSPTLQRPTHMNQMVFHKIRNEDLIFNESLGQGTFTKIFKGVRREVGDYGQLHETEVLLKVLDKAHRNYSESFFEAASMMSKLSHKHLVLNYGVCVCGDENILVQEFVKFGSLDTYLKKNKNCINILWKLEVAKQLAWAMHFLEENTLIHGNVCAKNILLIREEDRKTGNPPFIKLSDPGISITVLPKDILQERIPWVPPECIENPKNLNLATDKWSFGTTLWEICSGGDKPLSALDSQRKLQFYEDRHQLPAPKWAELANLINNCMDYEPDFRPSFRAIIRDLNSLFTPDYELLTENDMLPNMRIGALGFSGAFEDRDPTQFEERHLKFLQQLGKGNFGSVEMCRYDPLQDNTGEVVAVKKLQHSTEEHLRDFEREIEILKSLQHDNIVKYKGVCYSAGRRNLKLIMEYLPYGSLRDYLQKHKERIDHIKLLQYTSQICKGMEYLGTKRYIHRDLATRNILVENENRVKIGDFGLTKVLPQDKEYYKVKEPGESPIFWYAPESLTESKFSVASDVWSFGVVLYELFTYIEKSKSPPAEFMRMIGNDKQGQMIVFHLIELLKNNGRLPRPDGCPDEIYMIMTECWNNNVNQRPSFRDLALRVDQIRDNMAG

[11] = biological target: MERTK (UniProt Q12866); assay: as above
Sequence of MERTK (Q12866 whole entry, looked up): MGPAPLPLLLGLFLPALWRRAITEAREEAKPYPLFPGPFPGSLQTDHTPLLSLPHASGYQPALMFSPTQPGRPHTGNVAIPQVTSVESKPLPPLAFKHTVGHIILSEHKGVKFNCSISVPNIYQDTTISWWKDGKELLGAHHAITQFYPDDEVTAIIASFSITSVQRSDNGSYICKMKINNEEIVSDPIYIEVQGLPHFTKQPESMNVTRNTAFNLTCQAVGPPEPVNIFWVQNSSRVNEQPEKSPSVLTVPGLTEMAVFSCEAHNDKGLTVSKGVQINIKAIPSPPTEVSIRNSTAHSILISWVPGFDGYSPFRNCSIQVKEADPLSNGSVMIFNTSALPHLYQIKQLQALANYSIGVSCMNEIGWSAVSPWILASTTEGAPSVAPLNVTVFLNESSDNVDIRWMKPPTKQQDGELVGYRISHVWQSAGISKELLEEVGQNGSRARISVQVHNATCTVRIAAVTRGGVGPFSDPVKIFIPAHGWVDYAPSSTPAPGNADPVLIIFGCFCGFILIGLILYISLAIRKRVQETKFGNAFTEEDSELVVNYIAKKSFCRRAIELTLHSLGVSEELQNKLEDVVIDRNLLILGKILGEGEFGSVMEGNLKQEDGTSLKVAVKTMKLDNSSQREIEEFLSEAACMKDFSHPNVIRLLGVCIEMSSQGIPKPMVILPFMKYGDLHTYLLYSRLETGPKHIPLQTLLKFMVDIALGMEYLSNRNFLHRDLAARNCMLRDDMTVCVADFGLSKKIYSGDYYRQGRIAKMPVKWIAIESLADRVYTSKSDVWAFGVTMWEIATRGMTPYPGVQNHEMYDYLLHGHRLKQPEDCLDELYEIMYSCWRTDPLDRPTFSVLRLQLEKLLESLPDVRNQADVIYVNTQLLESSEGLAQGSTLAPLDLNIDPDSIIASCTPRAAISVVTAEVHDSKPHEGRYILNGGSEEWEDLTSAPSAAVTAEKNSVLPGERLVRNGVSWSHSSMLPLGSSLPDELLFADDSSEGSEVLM

[12] = system: c-Abl (mouse); assay: as above
[13] = system: c-Src; assay: as above
[14] = biological target: Grb2 SH2 (UniProt P62993); assay: SH2 binding enrichment of the phosphorylated peptide, bacterial display (enrichment ratio); higher = better substrate or ligand; peptides without Tyr show the background
[15] = biological target: SHP2-C SH2; assay: as above
[16] = biological target: c-Src SH2; assay: as above
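Wherever SH2 binding enrichment of the phosphorylated peptide, bacterial display is given: peptide library displayed on the E. coli surface as eCPX fusions, selected cells deep-sequenced, score is each peptide's frequency after selection divided by its frequency in the input.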
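Wherever phosphorylation enrichment, bacterial display is given: 11-residue human phosphosite peptides and single-mutation variants displayed on the E. coli surface, counted by deep sequencing, each peptide's frequency after selection divided by its frequency in the unselected input library; frequency after pTyr selection over input frequency; kinase dosed for 20-30% of maximal phosphorylation in three min.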

Sequence of EPHB1 (P54762 whole entry, looked up): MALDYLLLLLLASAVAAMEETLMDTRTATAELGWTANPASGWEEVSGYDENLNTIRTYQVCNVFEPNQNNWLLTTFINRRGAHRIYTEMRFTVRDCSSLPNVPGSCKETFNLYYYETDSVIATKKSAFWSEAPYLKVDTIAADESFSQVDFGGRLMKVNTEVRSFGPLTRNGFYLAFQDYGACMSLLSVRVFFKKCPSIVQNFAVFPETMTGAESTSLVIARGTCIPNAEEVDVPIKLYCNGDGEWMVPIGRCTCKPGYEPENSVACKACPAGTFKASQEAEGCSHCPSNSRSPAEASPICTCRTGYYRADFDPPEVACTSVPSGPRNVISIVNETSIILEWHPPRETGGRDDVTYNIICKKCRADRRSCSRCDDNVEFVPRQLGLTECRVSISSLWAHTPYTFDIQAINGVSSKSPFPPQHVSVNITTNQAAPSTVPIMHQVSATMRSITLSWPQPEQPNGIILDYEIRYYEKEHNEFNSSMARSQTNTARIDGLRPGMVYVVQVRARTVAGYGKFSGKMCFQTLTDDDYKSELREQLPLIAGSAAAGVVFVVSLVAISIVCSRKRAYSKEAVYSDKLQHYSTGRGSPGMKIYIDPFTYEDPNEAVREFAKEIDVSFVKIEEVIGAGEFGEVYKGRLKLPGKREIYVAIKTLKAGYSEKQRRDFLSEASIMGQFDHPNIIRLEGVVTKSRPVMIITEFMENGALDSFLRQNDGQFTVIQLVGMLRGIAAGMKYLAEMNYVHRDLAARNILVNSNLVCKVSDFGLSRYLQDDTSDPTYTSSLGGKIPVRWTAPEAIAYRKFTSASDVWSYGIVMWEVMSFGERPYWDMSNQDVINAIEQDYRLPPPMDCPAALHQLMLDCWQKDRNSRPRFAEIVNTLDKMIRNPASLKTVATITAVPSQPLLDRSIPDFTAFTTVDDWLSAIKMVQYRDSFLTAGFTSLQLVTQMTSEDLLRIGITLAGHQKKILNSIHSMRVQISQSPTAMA

Row | Sequence | SH2 binding enrichment [14] | SH2 binding enrichment [15] | SH2 binding enrichment [16] | phosphorylation enrichment [1] | phosphorylation enrichment [2] | phosphorylation enrichment [3] | phosphorylation enrichment [4] | phosphorylation enrichment [5] | phosphorylation enrichment [6] | phosphorylation enrichment [7] | phosphorylation enrichment [8] | phosphorylation enrichment [9] | phosphorylation enrichment [10] | phosphorylation enrichment [11] | phosphorylation enrichment [12] | phosphorylation enrichment [13]
1 | VIKDKYPQARY [APTX_Y209_K211Q] | 0.888 | 0.66 | 0.532 | 0.498 | 0.401 | 0.394 | 0.358 | 0.453 | 0.42 | 0.569 | 0.363 | 0.373 | 0.554 | 0.377 | 0.523 | 0.43
2 | VMTSKYRGGGG [HBA1_Y141_L137M] | 0.834 | 0.792 | 0.691 | 0.433 | 0.332 | 0.427 | 0.444 | 0.467 | 0.378 | 0.491 | 0.378 | 0.39 | 0.424 | 0.36 | 0.384 | 0.363
3 | VMVCAYLLHRG [PTEN_Y138_I135V] | 0.91 | 0.723 | 0.724 | 1.13 | 0.614 | 0.538 | 0.502 | 0.78 | 0.558 | 1.3 | 0.478 | 0.584 | 1.23 | 0.481 | 1.18 | 0.558
4 | VNCHQYDGLVE [ATP2A2_Y407] | 1.18 | 0.983 | 12.5 | 1.06 | 0.658 | 0.659 | 0.614 | 0.818 | 0.598 | 1.2 | 0.626 | 0.651 | 0.848 | 0.499 | 0.672 | 0.531
5 | VNFGAYINDFN [GLB1_Y488_K493N_YF] | 3.12 | 0.674 | 1.48 | 0.954 | 0.633 | 0.6 | 0.474 | 0.708 | 0.571 | 1.07 | 0.451 | 0.46 | 0.899 | 0.409 | 0.788 | 0.397
6 | VNRSGYTLIRK [ATP6V0A2_Y688] | 0.56 | 0.814 | 1.74 | 0.64 | 0.333 | 0.444 | 0.315 | 0.452 | 0.366 | 0.672 | 0.533 | 0.429 | 0.429 | 0.386 | 0.568 | 0.43
7 | VPTSKYRGGGG [HBA1_Y141_L137P] | 0.929 | 0.597 | 0.558 | 0.392 | 0.284 | 0.341 | 0.392 | 0.349 | 0.327 | 0.457 | 0.452 | 0.355 | 0.572 | 0.392 | 0.446 | 0.363
8 | VQDPAYLRDIN [OPRK1_Y369_D374N] | 0.75 | 0.555 | 0.454 | 0.828 | 0.608 | 0.485 | 0.415 | 0.623 | 0.46 | 0.974 | 0.467 | 0.442 | 0.766 | 0.333 | 0.604 | 0.488
9 | VRFMAYTDEIF [F8_Y450_T454I] | 1.07 | 0.72 | 0.554 | 1.21 | 0.598 | 0.595 | 0.608 | 0.753 | 0.65 | 1.21 | 0.434 | 0.436 | 1.07 | 0.697 | 1.23 | 0.434

The next lines start with results.

Row | SH2 binding enrichment [14] | SH2 binding enrichment [15] | SH2 binding enrichment [16] | Sequence | phosphorylation enrichment [1] | phosphorylation enrichment [2] | phosphorylation enrichment [3] | phosphorylation enrichment [4] | phosphorylation enrichment [5] | phosphorylation enrichment [6] | phosphorylation enrichment [7] | phosphorylation enrichment [8] | phosphorylation enrichment [9] | phosphorylation enrichment [10] | phosphorylation enrichment [11] | phosphorylation enrichment [12] | phosphorylation enrichment [13]
10 | 1.54 | 1.53 | 1.36 | VIVRMYDYHVL [RPF2_Y109_G106V] | 1.2 | 2.24 | 3.26 | 3.25 | 2.12 | 4.25 | 1.04 | 0.499 | 0.587 | 0.975 | 2.39 | 0.746 | 0.498
11 | 0.899 | 0.928 | 0.778 | VMLENYSNLLS [ZFP69_Y109_V113L] | 0.66 | 1.97 | 0.864 | 0.559 | 0.586 | 0.372 | 0.832 | 0.396 | 0.422 | 0.699 | 0.388 | 0.595 | 0.428
12 | 0.845 | 0.722 | 0.458 | VMTLDYSKTVV [SETD2_Y770_V768L] | 0.719 | 0.571 | 0.52 | 0.419 | 0.701 | 0.449 | 0.738 | 0.37 | 0.439 | 0.775 | 0.372 | 0.643 | 0.415
13 | 0.937 | 1.19 | 0.528 | VMTVDYSKTVV [SETD2_Y770] | 0.638 | 0.379 | 0.417 | 0.456 | 0.485 | 0.493 | 0.749 | 0.451 | 0.434 | 0.615 | 0.35 | 0.574 | 0.319
14 | 0.909 | 0.791 | 0.73 | VPLATYMQIYK [RPL21_Y30_R32Q] | 0.749 | 1.98 | 0.737 | 0.448 | 0.53 | 0.315 | 0.636 | 0.975 | 2.01 | 0.51 | 0.541 | 0.565 | 1.16
